Measurements published in PMC2064389 (The Journal of Cell Biology, 2006).
Like-named read-outs stand apart in the source and are kept apart here. Values belong to the molecule of their own block, whether it stands above or below them.

Legend:
Assay in all cases: liposome flotation
[1] = target: mArf1p (wild type or Q71L not told) (yeast) (UniProt P11076)
[2] = target: T1, Chs5–Chs6[all] complex (yeast, UniProt Q12114 1-671; P40955 1-746; Q05029 1-724; Q08754 1-746; P36122 1-765)
[3] = target: T1, Chs5–Chs6[all] complex; remark: listed apart in the source
[4] = target: Complex of Chs5p with two paralogues (Chs6p and Bch1p) (yeast, UniProt Q12114 1-671; P40955 1-746; Q05029 1-724)
Sequence of Complex of Chs5p with two paralogues (Chs6p and Bch1p) (Q12114 whole entry, chain 1 of 3): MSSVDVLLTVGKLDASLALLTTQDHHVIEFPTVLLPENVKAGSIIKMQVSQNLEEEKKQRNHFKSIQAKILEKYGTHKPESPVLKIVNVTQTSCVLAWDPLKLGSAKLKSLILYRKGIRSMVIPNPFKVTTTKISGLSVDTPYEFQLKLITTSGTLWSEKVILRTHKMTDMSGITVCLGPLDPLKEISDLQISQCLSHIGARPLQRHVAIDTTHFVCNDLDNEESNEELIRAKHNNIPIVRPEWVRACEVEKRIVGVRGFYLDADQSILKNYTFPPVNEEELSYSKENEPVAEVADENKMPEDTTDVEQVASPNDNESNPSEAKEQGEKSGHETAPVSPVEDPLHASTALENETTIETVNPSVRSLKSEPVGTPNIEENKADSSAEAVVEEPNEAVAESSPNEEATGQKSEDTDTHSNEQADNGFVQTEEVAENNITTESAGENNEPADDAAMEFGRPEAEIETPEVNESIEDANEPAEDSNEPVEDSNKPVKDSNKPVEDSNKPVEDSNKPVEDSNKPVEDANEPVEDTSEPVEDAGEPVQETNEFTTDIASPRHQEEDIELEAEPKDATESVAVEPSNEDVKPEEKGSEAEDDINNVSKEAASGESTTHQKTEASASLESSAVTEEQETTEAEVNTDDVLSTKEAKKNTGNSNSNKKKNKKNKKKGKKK
Sequence of Complex of Chs5p with two paralogues (Chs6p and Bch1p) (P40955 whole entry, chain 2 of 3): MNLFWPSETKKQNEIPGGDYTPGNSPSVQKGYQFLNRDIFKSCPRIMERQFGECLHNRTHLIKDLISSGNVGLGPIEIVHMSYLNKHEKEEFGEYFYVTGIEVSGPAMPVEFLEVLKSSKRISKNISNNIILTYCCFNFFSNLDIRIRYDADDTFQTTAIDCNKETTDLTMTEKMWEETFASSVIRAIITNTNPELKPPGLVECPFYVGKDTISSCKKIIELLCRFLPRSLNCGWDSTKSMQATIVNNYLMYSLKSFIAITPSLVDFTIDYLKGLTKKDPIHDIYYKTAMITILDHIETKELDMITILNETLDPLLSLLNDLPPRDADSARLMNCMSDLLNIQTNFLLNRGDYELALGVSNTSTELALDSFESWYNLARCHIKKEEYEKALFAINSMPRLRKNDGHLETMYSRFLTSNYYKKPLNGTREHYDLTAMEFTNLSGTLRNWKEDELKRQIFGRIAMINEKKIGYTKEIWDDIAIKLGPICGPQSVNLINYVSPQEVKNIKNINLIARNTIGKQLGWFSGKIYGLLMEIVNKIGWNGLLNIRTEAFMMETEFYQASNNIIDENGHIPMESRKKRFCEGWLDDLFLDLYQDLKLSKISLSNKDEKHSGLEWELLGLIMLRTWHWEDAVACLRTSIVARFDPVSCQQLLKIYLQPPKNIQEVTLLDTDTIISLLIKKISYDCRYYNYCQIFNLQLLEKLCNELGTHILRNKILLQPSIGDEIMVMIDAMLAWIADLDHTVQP
Sequence of Complex of Chs5p with two paralogues (Chs6p and Bch1p) (Q05029 whole entry, chain 3 of 3): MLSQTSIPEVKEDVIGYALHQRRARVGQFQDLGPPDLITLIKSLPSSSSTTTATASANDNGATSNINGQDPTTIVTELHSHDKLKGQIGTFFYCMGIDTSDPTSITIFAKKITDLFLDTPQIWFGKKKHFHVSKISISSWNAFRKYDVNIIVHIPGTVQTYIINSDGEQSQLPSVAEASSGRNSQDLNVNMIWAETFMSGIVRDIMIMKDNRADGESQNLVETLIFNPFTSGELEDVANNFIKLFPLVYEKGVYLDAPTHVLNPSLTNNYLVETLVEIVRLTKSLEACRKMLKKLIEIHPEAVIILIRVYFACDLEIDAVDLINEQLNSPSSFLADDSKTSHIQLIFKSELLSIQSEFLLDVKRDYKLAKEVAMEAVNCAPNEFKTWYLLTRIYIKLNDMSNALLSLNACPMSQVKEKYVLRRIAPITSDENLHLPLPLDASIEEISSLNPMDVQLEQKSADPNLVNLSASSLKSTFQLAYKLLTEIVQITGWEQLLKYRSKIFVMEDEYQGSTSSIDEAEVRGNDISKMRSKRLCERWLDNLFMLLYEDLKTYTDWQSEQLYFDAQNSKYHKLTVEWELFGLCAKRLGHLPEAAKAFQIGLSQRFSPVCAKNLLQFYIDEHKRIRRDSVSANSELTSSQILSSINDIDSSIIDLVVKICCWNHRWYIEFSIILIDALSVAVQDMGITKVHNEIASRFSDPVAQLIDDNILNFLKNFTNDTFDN

concentration of Chs5–Chs6[all] at which binding was saturated (∼1 μM mArf1p) [1]: 0.5 µM
stoichiometry N (Arf1 per Chs5–Chs6[all] complex (molar)) [1]: 7.5
Molecule: Chs5–Chs6[all] complex (from UniProt Q12114 1-671; P40955 1-746; Q05029 1-724; Q08754 1-746; P36122 1-765)

binding result [2]: binds
B1: Recombinant myristoylated Arf1p (Q71L; GTPase deficient) (natural protein, yeast, UniProt P11076 1-181, looked up)
chain: MGLFASKLFSNLFGNKEMRILMVGLDGAGKTTVLYKLKLGEVITTIPTIGFNVETVQYKNISFTVWDVGGLDRIRSLWRHYYRNTEGVIFVVDSNDRSRIGEAREVMQRMLNEDELRNAAWLVFANKQDLPEAMSAAEITEKLGLHSIRNRPWFIQATCATSGEGLYEGLEWLSNSLKNST
modifications: N-myristoylated (>75% of the protein)

binding result [3]: binds
binding result [4]: binds
B2: Myristoylated wild-type Arf1p (natural protein, yeast, UniProt P11076 1-181, looked up)
chain: MGLFASKLFSNLFGNKEMRILMVGLDGAGKTTVLYKLKLGEVITTIPTIGFNVETVQYKNISFTVWDVGGQDRIRSLWRHYYRNTEGVIFVVDSNDRSRIGEAREVMQRMLNEDELRNAAWLVFANKQDLPEAMSAAEITEKLGLHSIRNRPWFIQATCATSGEGLYEGLEWLSNSLKNST
modifications: N-myristoylated (>75% of the protein)
